Reference: patent US6531296B1, “Nuclear tyrosine kinase Rak” (The University of North Carolina at Chapel Hill, priority 1995, dated 2003)
No end group written: not given here.

Molecular target: T1, CDC2 (Homo sapiens, UniProt P06493)
T1 construct: incubated with immunoprecipitated CDC2; endogenous in cells
Test: In vitro kinase assay of immunoprecipitated CDC2 with Histone H1 as exogenous substrate
Format: biochemical
Experimental: The 110 N-terminal amino acids of Rak were produced as a GST fusion protein (RAKNT:GST) and incubated with immunoprecipitated CDC2, and subjected to an in vitro kinase assay with Histone H1 added as an exogenous substrate, and analyzed by SDS-PAGE. […] This fusion protein was incubated with immunoprecipitated CDC2, and subjected to an in vitro kinase assay with Histone H1 added as an exogenous substrate, and analyzed by SDS-PAGE.
The CDC2 binding domain of RAK appears to be between amino acids 86-110. Since the binding of RAK to CDC2 is exceptionally strong, the biological function of this interaction was explored.

T1 sequence (P06493 whole entry): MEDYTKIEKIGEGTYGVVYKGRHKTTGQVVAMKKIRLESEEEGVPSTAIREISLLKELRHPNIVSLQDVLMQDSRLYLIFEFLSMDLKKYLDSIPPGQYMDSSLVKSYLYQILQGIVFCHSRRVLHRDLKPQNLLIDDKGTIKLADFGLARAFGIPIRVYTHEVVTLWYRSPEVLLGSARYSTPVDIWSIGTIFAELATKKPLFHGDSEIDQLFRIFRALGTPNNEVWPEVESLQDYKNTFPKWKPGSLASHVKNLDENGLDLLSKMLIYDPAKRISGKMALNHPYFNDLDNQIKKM

- inhibition of CDC2 histone H1 phosphorylation activity: reproducibly attenuated
Sequence: KRRDGSSQQLQ [SEQ ID NO:4]
